This assay addresses S-RBD protein with C-terminal human Fc-tag (receptor-binding domain of SARS-CoV-2 S protein). The experiment in a line: flow cytometry on cells. Particulars: 100 μg/ml S-RBD, 1 mM Mn2+, β1-KO 293 T cells, read off a plot. For orientation: Flow cytometry measures light scatter and fluorescence of single cells or particles in a stream.

For the substance “wild-type α4β1 integrin expressed in β1-KO 293 T cells (from UniProt P13612;P05556) β1:D130A”, for the setting “parent: est. 1.5”, the response was determined as 0.95 relative MFI.

Take “wild-type α4β7 integrin expressed in β1-KO 293 T cells (from UniProt P13612;P26010) β7:D119A”: where the note is “parent: est. 2.0”, the response is 1.2 relative MFI.

In the case of “wild-type α5β1 integrin expressed in β1-KO 293 T cells (from UniProt P08648;P05556) β1:D130A”, the response (parent: est. 1.2) was found to be 0.93 relative MFI.

As to “wild-type αLβ2 integrin expressed in β1-KO 293 T cells (from UniProt P20701;P05107) αL:D137A”, the response (parent: est. 1.3) worked out at 0.97 relative MFI.

Values taken from paper PMC9969015.
